T1: HalA1
T1 chain: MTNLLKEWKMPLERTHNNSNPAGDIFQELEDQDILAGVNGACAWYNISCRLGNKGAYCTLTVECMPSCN

T2: HalA2
T2 chain: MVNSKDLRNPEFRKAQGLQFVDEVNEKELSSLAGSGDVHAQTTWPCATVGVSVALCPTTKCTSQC

B1: HalM1 (protein)
chain: MRELQNALYFSEVVFGPNLEKIVGEKRLNFWLKLIGEDPENLKEFLSRKGNSFEEQTLPEKEAIVPNRLGEEALEKVREELEFLNTYSTKHVRRVKELGVQIPFEGILLPFISMYIEKFQQQQLRKKIGPIHEEIWTQIVQDITSKLNAILHRTLILELNVARVTSQLKGDTPEERFAYYSKTYLGKREVTHRLYSEYPVVLRLLFTTISHHISFITEILERVANDREAIETEFSPCSPIGTLASLHLNSGDAHHKQRTVTILEFSSSLKLVYKPRSLKVDGVFNGLLAFLNDRTGEVIKDQYCPKVLQRDGYGYVEFVTHQSCQSLEEVSDFYERLGSLMSLSYVLNSSDFHFENIIAHGPYPVLIDLETIIHNTADSSEETSTAMDRAFRMLNDSVLSTGMLPSSIYYRDQPNMKGLNVGGVSKSEGQKTPFKVNQIANRNTDEMRIEKDHVTLSSQKNLPIFQSAAMESVHFLDQIQKGFTSMYQWIEKNKQEFKEQVRKFEGVPVRAVLRSTTRYTELLKSSYHPDLLRSALDREVLLNRLTVDSVMTPYLKEIIPLEVEDLLNGDVPYFYTLPEERALYQEASAINSTFFTTSIFHKIDQKIDKLGIEDHTQQMKILHMSMLASNANHYADVADLDIQKGHTIKNEQYVEMAKDIGDYLMELSVEGENQGEPDLCWISTVLEGSSEIIWDISPVGEDLYNGSAGVALFYAYLFKITGEKRYQEIAYKALVPVRRSVAQFQHHPNWSIGAFNGASGYLYAMGTIAALFNDERLKHEVTRSIPHIEPMIHEDKIYDFIGGSAGALKVFLSLSGLFDEPKFLELAIACSEHLMKNAIKTDQGIGWKPPWEVTPLTGFSHGVSGVMASFIELYQQTGDERLLSYIDQSLAYERSFFSEQEENWLTPNKETPVVAWCHGAPGILVSRLLLKKCGYLDEKVEKEIEVALSTTIRKGLGNNRSLCHGDFGQLEILRFAAEVLGDSYLQEVVNNLSGELYNLFKTEGYQSGTSRGTESVGLMVGLSGFGYGLLSAAYPSAVPSILTLDGEIQKYREPHEANH
B2: HalM2 (protein)
chain: TPLTSEHPSVPTTLPHTNDTDWLEQLHDILSIPVTEEIQKYFHAENDLFSFFYTPFLQFTYQSMSDYFMTFKTDMALIERQSLLQSTLTAVHHRLFHLTHRTLISEMHIDKLTVGLNGSTPHERYMDFNHKFNKTSKSKNLFNIYPILGKLVVNETLRTINFVKKIIQHYMKDYLLLSDFFKEKDLRLTNLQLGVGDTHVNGQCVTILTFASGQKVVYKPRSLSIDKQFGEFIEWVNSKGFQPSLRIPIAIDRQTYGWYEFIPHQEATSEDEIERYYSRIGGYLAIAYLFGATDLHLDNLIACGEHPMLIDLETLFTNDLDCYDSAFPFPALARELTQSVFGTLMLPITIASGKLLDIDLSAVGGGKGVQSEKIKTWVIVNQKTDEMKLVEQPYVTESSQNKPTVNGKEANIGNYIPHVTDGFRKMYRLFLNEIDELMDHNGPIFAFESCQIRHVFRATHVYAKFLEASTHPDYLQEPTRRNKLFESFWNITSLMAPFKKIVPHEIAELENHDIPYFVLTCGGTIVKDGYGRDIADLFQSSCIERVTHRLQQLGSEDEARQIRYIKSSLATLTNGDWTPSHEKTPMSPASADREDGYFLREAQAIGDDILAQLIWEDDRHAAYLIGVSVGMNEAVTVSPLTPGIYDGTLGIVLFFDQLAQQTGETHYRHAADALLEGMFKQLKPELMPSSAYFGLGSLFYGLMVLGLQRSDSHIIQKAYEYLKHLEECVQHEETPDFVSGLSGVLYMLTKIYQLTNEPRVFEVAKTTASRLSVLLDSKQPDTVLTGLSHGAAGFALALLTYGTAANDEQLLKQGHSYLVYERNRFNKQENNWVDLRKGNAYQTFWCHGAPGIGISRLLLAQFYDDELLHEELNAALNKTISDGFGHNHSLCHGDFGNLDLLLLYAQYTNNPEPKELARKLAISSIDQAHTYGWKLGLNHSDQLQGMMLGVTGIGYQLLRHINPTVPSILALELPSSTLTEKELRIHDR

How the values were obtained:
HalA1 = target: T1, HalA1
HalA2 = target: T2, HalA2

Row | Protein | dehydration of the peptide, MALDI-TOF MS (HalA1) | iodoacetamide alkylation of free cysteines after HalM modification (cyclization), MALDI-TOF MS (HalA1) | dehydration of the peptide, MALDI-TOF MS (HalA2) | iodoacetamide alkylation of free cysteines after HalM modification (cyclization), MALDI-TOF MS (HalA2)
1 | B1 | Incubation of HalA1 with HalM1 generated a species that was dehydrated 3-fold | The mass of HalA1 after modification by HalM1 was increased by 116 Da, consistent with the addition of two adducts | Incubation of HalA1 with HalM2 or HalA2 with HalM1 did not result in modified peptide in either case | 
2 | B2 | Incubation of HalA1 with HalM2 or HalA2 with HalM1 did not result in modified peptide in either case |  | incubation of HalA2 with HalM2 generated a species that was dehydrated 7-fold | The mass of HalA2 modified by HalM2 remained unchanged under the alkylation conditions tested, consistent with the absence of free Cys residues

Reference: patent US20080242617
